Patent US20150087809A1

B1: SEQ ID NO 14 (peptide)
peptide: SYTWTGALI
modifications: not checked
B2: SEQ ID NO 22 (peptide)
peptide: AYYSMVGNW
modifications: not checked
B3: SEQ ID NO 2 (peptide)
peptide: VILDSFDPI
modifications: not checked
B4: SEQ ID NO 37 (peptide)
peptide: NFSRCWVAL
modifications: not checked
B5: SEQ ID NO 18 (peptide)
peptide: LMTHFFSIL
modifications: not checked
B6: SEQ ID NO 42 (peptide)
peptide: LLSTTEWQI
modifications: not checked
B7: SEQ ID NO 13 (peptide)
peptide: ILMTHFFSI
modifications: not checked
B8: SEQ ID NO 12 (peptide)
peptide: AQPGYPWPL
modifications: not checked
B9: SEQ ID NO 27 (peptide)
peptide: ILLGPADSF
modifications: not checked
B10: SEQ ID NO 40 (peptide)
peptide: ITYSTYCKF
modifications: not checked
B11: SEQ ID NO 1 (peptide)
peptide: ILPCSFTTL
modifications: not checked
B12: SEQ ID NO 19 (peptide)
peptide: LLKRLHQWI
modifications: not checked
B13: SEQ ID NO 8 (peptide)
peptide: WHYPCTVNF
modifications: not checked
B14: SEQ ID NO 106 (peptide)
peptide: WLRDVWDWI
modifications: not checked
B15: SEQ ID NO 92 (peptide)
peptide: WHYPCTVNF
modifications: not checked
B16: SEQ ID NO 94 (peptide)
peptide: GLIHLHQNI
modifications: not checked
B17: SEQ ID NO 102 (peptide)
peptide: AYYSMVGNW
modifications: not checked
B18: SEQ ID NO 104 (peptide)
peptide: LLKRLHQWI
modifications: not checked
B19: SEQ ID NO 87 (peptide)
peptide: PLLRDEVTF
modifications: not checked
B20: SEQ ID NO 108 (peptide)
peptide: SYTWTGALI
modifications: not checked
B21: SEQ ID NO 90 (peptide)
peptide: TVLADFKTW
modifications: not checked
B22: SEQ ID NO 98 (peptide)
peptide: AFYGVWPLL
modifications: not checked
B23: SEQ ID NO 100 (peptide)
peptide: ILLGPADSF
modifications: not checked
B24: SEQ ID NO 96 (peptide)
peptide: ILMTHFFSI
modifications: not checked
B25: SEQ ID NO 110 (peptide)
peptide: RYAPACKPL
modifications: not checked
B26: SEQ ID NO 112 (peptide)
peptide: VLADFKTWL
modifications: not checked
B27: SEQ ID NO 84 (peptide)
peptide: VILDSFEPL
modifications: not checked
B28: SEQ ID NO 109 (peptide)
peptide: LLSTTEWQI
modifications: not checked
B29: SEQ ID NO 123 (peptide)
peptide: VFPDLGVRV
modifications: not checked
B30: SEQ ID NO 107 (peptide)
peptide: ITYSTYGKF
modifications: not checked
B31: SEQ ID NO 64 (peptide)
peptide: LMTHFFSIL
modifications: not checked
B32: SEQ ID NO 58 (peptide)
peptide: AQPGYPWPL
modifications: not checked
B33: SEQ ID NO 59 (peptide)
peptide: PLLRDEVTF
modifications: not checked
B34: SEQ ID NO 56 (peptide)
peptide: TVLADFKTW
modifications: not checked
B35: SEQ ID NO 67 (peptide)
peptide: AYYSMVGNW
modifications: not checked
B36: SEQ ID NO 52 (peptide)
peptide: WHYPCTVNF
modifications: not checked
B37: SEQ ID NO 55 (peptide)
peptide: LMCAVHPEL
modifications: not checked
B38: SEQ ID NO 45 (peptide)
peptide: VILDSFEPL
modifications: not checked
B39: SEQ ID NO 49 (peptide)
peptide: AFYGVWPLL
modifications: not checked
B40: SEQ ID NO 76 (peptide)
peptide: WLRDVWDWI
modifications: not checked
B41: SEQ ID NO 75 (peptide)
peptide: ILLGPADSF
modifications: not checked
B42: SEQ ID NO 60 (peptide)
peptide: ILMTHFFSI
modifications: not checked
B43: SEQ ID NO 61 (peptide)
peptide: SYTWTGALI
modifications: not checked
B44: SEQ ID NO 65 (peptide)
peptide: LLKRLHQWI
modifications: not checked
B45: SEQ ID NO 71 (peptide)
peptide: RYAPACKPL
modifications: not checked
B46: SEQ ID NO 54 (peptide)
peptide: GLIHLHQNI
modifications: not checked

Molecular target: T1, HLA-A24 type molecule (product of the HLA-A*2402 gene) (human)
Settings: not given

Point of comparison: B4, -log Kd 6.28 -log Kd (M). Against it:
- B1 — higher, 7.13 -log Kd (M)
- B2 — higher, 6.47 -log Kd (M)
- B3 — lower, 5.32 -log Kd (M)
- B5 — lower, 5.92 -log Kd (M)
- B6 — higher, 8.34 -log Kd (M)
- B7 — higher, 7.9 -log Kd (M)
- B8 — lower, 5.36 -log Kd (M)
- B9 — lower, 5.5 -log Kd (M)
- B10 — higher, 6.98 -log Kd (M)
- B11 — higher, 7.66 -log Kd (M)
- B12 — higher, 6.86 -log Kd (M)
- B13 — higher, 6.39 -log Kd (M)

Molecular target: T1, HLA-A24 type molecule (product of the …)
Settings: not given
Remark: another data set of the same source

Point of comparison: B22, -log Kd 7.73 -log Kd (M). Against it:
- B14 — lower, 6.34 -log Kd (M)
- B15 — lower, 6.39 -log Kd (M)
- B16 — lower, 5.86 -log Kd (M)
- B17 — lower, 6.47 -log Kd (M)
- B18 — lower, 6.86 -log Kd (M)
- B19 — lower, 5.09 -log Kd (M)
- B20 — lower, 7.13 -log Kd (M)
- B21 — lower, 6.52 -log Kd (M)
- B23 — lower, 5.5 -log Kd (M)
- B24 — higher, 7.9 -log Kd (M)
- B25 — lower, 6.76 -log Kd (M)
- B26 — lower, 6.63 -log Kd (M)
- B27 — lower, 5 -log Kd (M)
- B28 — higher, 8.34 -log Kd (M)
- B29 — lower, 6.74 -log Kd (M)

Same assay, conditions: remark: other sources report otherwise

For B30, the -log Kd was 6.37 -log Kd (M).

Molecular target: T1, HLA-A24 type molecule (product of the …)
Settings: not given
Remark: another data set of the same source

Point of comparison: B33, -log Kd 5.09 -log Kd (M). Against it:
- B31 — higher, 5.92 -log Kd (M)
- B32 — higher, 5.36 -log Kd (M)
- B34 — higher, 6.52 -log Kd (M)
- B35 — higher, 6.47 -log Kd (M)
- B36 — higher, 6.39 -log Kd (M)
- B37 — higher, 6.59 -log Kd (M)
- B38 — lower, 5 -log Kd (M)
- B39 — higher, 7.73 -log Kd (M)
- B40 — higher, 6.34 -log Kd (M)
- B41 — higher, 5.5 -log Kd (M)
- B42 — higher, 7.9 -log Kd (M)
- B43 — higher, 7.13 -log Kd (M)
- B44 — higher, 6.86 -log Kd (M)
- B45 — higher, 6.76 -log Kd (M)
- B46 — higher, 5.86 -log Kd (M)
